Where “and” joins values, the source holds several entries; their conditions need not be identical. Identical values can stand only once.
Target: p53, Gal4 fusion of the two-hybrid control plasmid pM53
Assay: two-hybrid

## SV-40 large T, VP16 fusion of the two-hybrid control plasmid pV-T (natural protein)
  CAT protein of the two-hybrid reporter: 186 pg and 251 pg
